Test results taken from the nanobody polyreactivity screen of Harvey et al. (2022).

Test: yeast display, Sf9 membrane polyspecificity reagent, FACS + sequencing; frameworks hold sequencing errors
Summary of the method: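 Genes from sorted yeast were amplified by colony PCR, read by MiSeq 2 × 250 sequencing and filtered on CDR length. These cells carried a synthetic nanobody library in Saccharomyces cerevisiae BJ5465 and were sorted by FACS into low and high (top ~1%) gates on anti-HA and streptavidin fluorescence. Polyreactivity is labelled according to the gate of origin.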
With “QVQLVESGGGLVQAGGSLRLSCAASGSTFEYYAMGWYRQAPGKERELVAAITRSGSRTRYADSVKGRFTISRDNAKNTVYLQMNSLKPEDTAVYYCARLSSARYPFDSWGQGTQVTVSS” the “polyreactivity (PSR sort gate)” value was “high polyreactivity”.
In the case of “QVQLVESGGGLVQAGGSLRLSCAASGSTFEYYAMVWYRQAAGKERELVDRINWSGGSTYYADSVKGRFTISRDNAKNTVYLQMNSLKPEDTAVYYCNRKLTRFTCFPLAYWGQGTQVTVSS”, the “polyreactivity (PSR sort gate)” value is reported as “low polyreactivity”.
In the case of “QVQLVESGGGLVQAGGSLRLSCAASGSTFFANVMGWYRQAPGKEREFVAAINYRTGSTHYSDSVKGRFTISRDNAKNTVYLQMNSLKPEDTAVYYCAVYYQYTDVYQYSGYSVRYDYWGQGTQVTVSS”, the “polyreactivity (PSR sort gate)” value is reported as “low polyreactivity”.
With “QVQLVESGGGLVQAGGSLRLSCAASGSTFFDYAMGWYRQAPGKERELVAVISDGGTTTYADSVKGRFTISRDNAKNTVYLQMNSLKPEDTAVYYCAAENQDGLLVILGGYGYWGQGTQVTVSS” the “polyreactivity (PSR sort gate)” value was “low polyreactivity”.
For “QVQLVESGGGLVQAGGSLRLSCAASGSTFFEYAMGWYRQAPGKVREFVAGISWSGGITYYADSVKGRFTISRDNAKNTVYLQMNSLKPEDTAVYYCATAGGDWYGVDYWGQGTQVTVSS”, the “polyreactivity (PSR sort gate)” value was “low polyreactivity”.
For “QVQLVESGGGLVQAGGSLRLSCAASGSTFFEYTMGWYRQAPGKEREFVADIRGRDGSTSYADSVKGRFTISRDNAKNTVYLQMNSLKPEDTAVYYCNADVTRWTRSPWPYTYDYWGQGTQVTVSS”, the “polyreactivity (PSR sort gate)” value was “low polyreactivity”.
In the case of “QVQLVESGGGLVQAGGSLRLSCAASGSTFFFNAMGWYRQAPGKERELVAAITGRSGSTYYADSVKGRFTISRDNAKNTVYIQMNSLKPEDTAVYYCAADYVFVATPLRYDYWGQGTQVTVSS”, the “polyreactivity (PSR sort gate)” value is reported as “low polyreactivity”.
For “QVQLVESGGGLVQAGGSLRLSCAASGSTFFGNAMGWYIQAPGKERELVAAIRFSGVGTYYADSVKGRFTISRDNAKNTVYLQLNSLKPEYTEVFYCAAESYYKYYWGQGTQVTVSS”, the “polyreactivity (PSR sort gate)” value was “low polyreactivity”.
With “QVQLVESGGGLVQAGGSLRLSCAASGSTFFGNAMGWYRQAPGKERELVAAITTGSGRTYYADSVKGRFTISRDNAKNTVYLQMNSLKPEDTAVYYCAARFSERVYVVPFGYWGQGTQVTVSS” the “polyreactivity (PSR sort gate)” value was “high polyreactivity”.
For “QVQLVESGGGLVQAGGSLRLSCAASGSTFFGNTMGWYRQAPGKERELVAAITYRGSTYYADSVKGRFTISRDNAKNTVYLQMNSLKPEDTAVYYCAADGRWYNSESEYDYWGQGTQVTVSS”, the “polyreactivity (PSR sort gate)” value was “low polyreactivity”.
For “QVQLVESGGGLVQAGGSLRLSCAASGSTFFHNAMGWYRQAPGKERELVAAINWNGGSTYYADSVKGRFTISRDNAKNTVYLQMNSLKPEDTAVYYCAADIYTYLGAYYIGYYWGQGTQVTVSS”, the “polyreactivity (PSR sort gate)” value was “low polyreactivity”.
For “QVQLVESGGGLVQAGGSLRLSCAASGSTFFHYVMGWYRQAPGKERELVAAIRWSGGRTRYADSVKGRFTISRDNAKNTVYLQMNSLKPEDTAVYYCAAYRLSKPFYKYDYWGQGTQVTVSS”, the “polyreactivity (PSR sort gate)” value was “high polyreactivity”.
In the case of “QVQLVESGGGLVQAGGSLRLSCAASGSTFFLYAMGWYRQAPGKERELVAAISTTGGSTNYADSVKGRFTISRDNAKNTVYLQMNSLKPEDTAVYYCAAGPSAQSIYDHWGQGTQVTLSS”, the “polyreactivity (PSR sort gate)” value is reported as “low polyreactivity”.
In the case of “QVQLVESGGGLVQAGGSLRLSCAASGSTFFLYAMGWYRQAPGKERELVAAITYTDGDTYYADSVKGRFTISRDNAKNTVYLQMNSLKPEDTAVYYCAAYRFPYFPSIAYYYTYYSWGQGTQVTVSS”, the “polyreactivity (PSR sort gate)” value is reported as “low polyreactivity”.
With “QVQLVESGGGLVQAGGSLRLSCAASGSTFFRNAMGWYRQAPGKERELVASITSGGNTKYADSVKGRFTISRDNAKNTVYLQMNSLKPEDTAVYYCAALFYHFARYSRLYNYWGQGTQVTVSS” the “polyreactivity (PSR sort gate)” value was “low polyreactivity”.
With “QVQLVESGGGLVQAGGSLRLSCAASGSTFFRYAMGWNRQAPGKERELVATITGGGRTNYADSVKGRFTISRDNAKNTVYLQMNTLKPEDTAVYYCAAYGYVWALRLRYVTYYYWGQGTQVTVSS” the “polyreactivity (PSR sort gate)” value was “high polyreactivity”.
For “QVQLVESGGGLVQAGGSLRLSCAASGSTFFSYAMGWYRQAPGKDRELVAAISNSGGTTYYADSVKGRFTISRDNAKNTVYLQMNSLKPEDTAVYYSATRARYVGGYKYNYWGQGTQVTVSS”, the “polyreactivity (PSR sort gate)” value was “high polyreactivity”.
With “QVQLVESGGGLVQAGGSLRLSCAASGSTFFSYAMGWYRQAPGKERELVAAISNTGGTHYADSVKGRFTISRDNAKNTVYLQMNSLKPEDTAVFYCAADGWYYIGPFSVYSSFTSDYWGQGTQLTVSS” the “polyreactivity (PSR sort gate)” value was “low polyreactivity”.
In the case of “QVQLVESGGGLVQAGGSLRLSCAASGSTFFTYAMGWYRQAPGKERELVAAITRGGSSYYADSVKGRFTISRDNAKNTVYLLMNSLKPEDTAVYDCAARVSYRYGYWGQGTQVTVSS”, the “polyreactivity (PSR sort gate)” value is reported as “high polyreactivity”.
For “QVQLVESGGGLVQAGGSLRLSCAASGSTFFVNTMGWYRQAPGKERELVAAIRRRGGSTYYADSVKGRFTISRDNAKNTVYLQMNSLIPEDTAVYYCAADSYSRYYYWGQGTQVTVSS”, the “polyreactivity (PSR sort gate)” value was “high polyreactivity”.
With “QVQLVESGGGLVQAGGSLRLSCAASGSTFFVYAMGWYRQAPGKERELVATISSAASTYYADSVKGRFTISRDNAKNTVYLQMNSLKPEDTAVYYCAAGYFIRTRSRYRYDYWGQGTQVTVSS” the “polyreactivity (PSR sort gate)” value was “high polyreactivity”.
In the case of “QVQLVESGGGLVQAGGSLRLSCAASGSTFFYNAMGWYRQAPGKERELVAAITYRGGRTYYADSVKGRFTISRDIAKNTVYLQMKSLNPEDTSVYYCHAYPLYRVPDRLVVSDGNYWGQGTQVTVSS”, the “polyreactivity (PSR sort gate)” value is reported as “low polyreactivity”.
In the case of “QVQLVESGGGLVQAGGSLRLSCAASGSTFFYYAMGLYRQAPGKERELVADITSSGGRTYYADSVKGRFTISRDNAKNTVYLQMNSLKPEDTAVYYCAARDYRQSRYEYWGQGTQVTVSS”, the “polyreactivity (PSR sort gate)” value is reported as “high polyreactivity”.
For “QVQLVESGGGLVQAGGSLRLSCAASGSTFFYYAMGWYRQAPGKERELVAAITSSGGRTYYADSVKGRFTISRDNAKITVYLQMNSLKPEDTAVYYCAARDYRQSRYEYWGQGTQVTVSS”, the “polyreactivity (PSR sort gate)” value was “high polyreactivity”.
For “QVQLVESGGGLVQAGGSLRLSCAASGSTFFYYDMGWYRQAPGKERELVAAITSGGSTYYADSVKGLFTISRDNAKNTVYLHMNSLKPEDTAVYYCNAESYFWDFYDYDHWGQGTQVTVSS”, the “polyreactivity (PSR sort gate)” value was “low polyreactivity”.
For “QVQLVESGGGLVQAGGSLRLSCAASGSTFGAYAMGWYRQAPGKERELVAVINSDGSTNYADSVKGRFTISRDNAKHTVYLQMNSLKPEDTAVYYCAKDRTSRGGVPRMNYWGQGTQVTVSS”, the “polyreactivity (PSR sort gate)” value was “low polyreactivity”.
With “QVQLVESGGGLVQAGGSLRLSCAASGSTFGAYTMGWYRQAPGKERELVAAISSDGSTYYADSVKGRFTISRDNAKNTVYLQMNSLKPEDTAVYYCNARYHFYGRADYSYYYLFDYWGQGTQVTVSS” the “polyreactivity (PSR sort gate)” value was “low polyreactivity”.
For “QVQLVESGGGLVQAGGSLRLSCAASGSTFGDYAMGWYRQAPGKERELVAAISVSGASTYYADSVKGRFTISRDNAKNTVYLQMNSLKPEDTAVYYCAATYDTIGDSWGQGTQVTVSS”, the “polyreactivity (PSR sort gate)” value was “low polyreactivity”.
For “QVQLVESGGGLVQAGGSLRLSCAASGSTFGEYAMGWYRQAPGKERELVAVITWRDDSTYYADSVKGRFTISRDNAKNTVYLQMNSLKPEDTAVYYCNADIYQGNAGYIEVGTFGEYDYWGQGTQVTVSS”, the “polyreactivity (PSR sort gate)” value was “low polyreactivity”.
With “QVQLVESGGGLVQAGGSLRLSCAASGSTFGFNAMGWYRPAPGKERELVAAINESGGDTYYADSVKGRFTISRDNAKNTVYLQMNSLKPEDTAVYYCAADEPSSVYGILVELEYWGQGTQVTVSS” the “polyreactivity (PSR sort gate)” value was “high polyreactivity”.
In the case of “QVQLVESGGGLVQAGGSLRLSCAASGSTFGFNAMGWYRQAPGKERELVAAISRSGTRTYYADSVKGRFTISRDNAKNTVYLQMNSLKPEDTAVYYCAADSTLSRYDYWGQGTQVTVSS”, the “polyreactivity (PSR sort gate)” value is reported as “high polyreactivity”.
In the case of “QVQLVESGGGLVQAGGSLRLSCAASGSTFGFNPMGWYRQAPGKERELVAAITGSGGSTYYADSVKGRFTISRDNAKNTVYLQMNSLKPEDTAVYYCARETYGDYVHYDYWGQGTQVTVSS”, the “polyreactivity (PSR sort gate)” value is reported as “low polyreactivity”.
In the case of “QVQLVESGGGLVQAGGSLRLSCAASGSTFGFYAMGGYRQAPGKERELVAVISSGGGTNYADSVKGRFTISRDNAKNTVYLQMNSLKPEDTAVYYCAASRFALSGGYDYWGQGTQVTVSS”, the “polyreactivity (PSR sort gate)” value is reported as “low polyreactivity”.
With “QVQLVESGGGLVQAGGSLRLSCAASGSTFGFYAMGWFRQAPGKERELVAAISSSGSTYYADSVKGRFTISRDNAKNTVYVQINRLKPEDTAVYYCYADYWRYISSYDYWGQGTQVTVSS” the “polyreactivity (PSR sort gate)” value was “low polyreactivity”.
For “QVQLVESGGGLVQAGGSLRLSCAASGSTFGFYAMGWYRQAPGKERELVAVISSGDSTYYADSVKGRFTISRDNAKKTVYLQMNSLIPEDTAVDYCAKDALVIDGGGGYDYWGQGTQVTVSS”, the “polyreactivity (PSR sort gate)” value was “low polyreactivity”.
With “QVQLVESGGGLVQAGGSLRLSCAASGSTFGFYAMGWYRQAPGKERELVAVISSGGGTNYADSVKGRFTISRDNAKNTVYLQMNSLKPEDTAVYYCAASRFALSGGYDYWGQGTQVTVTS” the “polyreactivity (PSR sort gate)” value was “low polyreactivity”.
With “QVQLVESGGGLVQAGGSLRLSCAASGSTFGGKAMGWYRQAPGKDREMVAAITGSGGRTFYADSVKGRFTISRDNAKNTVYLQMNSLKQEDTAVYSCAAYSYIYSVNYWGQVTQVTVSS” the “polyreactivity (PSR sort gate)” value was “low polyreactivity”.
For “QVQLVESGGGLVQAGGSLRLSCAASGSTFGGNAMGWYRQAPGKERELVAAISRSGTTTYYADSVKGRFTISRDNAKNTVYLQMNSLKPEDTAVYYCAADYVRSQYDYWGQGTQVTVSS”, the “polyreactivity (PSR sort gate)” value was “high polyreactivity”.
For “QVQLVESGGGLVQAGGSLRLSCAASGSTFGGNAMGWYRQAPGKERELVAAISSSGGSTYYADSVKGRFTISRDNAKNTVYLQMNSLKPEDTAVYSCAALYHWTYDYWGQGTQVTVSS”, the “polyreactivity (PSR sort gate)” value was “low polyreactivity”.
In the case of “QVQLVESGGGLVQAGGSLRLSCAASGSTFGGNAMGWYRQAPGKERELVAAITVGGDSTYYADSVKGRFTISRDNAKNTVYLQMNSLKPEDTAVYYCAARHYWWYDYWGQGTQVTVSS”, the “polyreactivity (PSR sort gate)” value is reported as “low polyreactivity”.
In the case of “QVQLVESGGGLVQAGGSLRLSCAASGSTFGGNAMGWYRQAPGKERELVAVISKRGGSTYYADSVKGRFTISRDYAKNTVYLQMNSLKPEDTAVYYCAATYSRYWSPTYDYWGQGTQVTVSS”, the “polyreactivity (PSR sort gate)” value is reported as “high polyreactivity”.
For “QVQLVESGGGLVQAGGSLRLSCAASGSTFGGNDMGWYRQAPGKERELVAAISSGTSTNYADSVKGRFTISRDNAKNTVYLQMNSLKPEDTAVYYCAAKWHVRGRGARYRYDYDYWGQGTQVTVSS”, the “polyreactivity (PSR sort gate)” value was “low polyreactivity”.
In the case of “QVQLVESGGGLVQAGGSLRLSCAASGSTFGGYAMGRYRQAPGKERELVAAISQSGTRTYYADSVKGRFTISRDNAKYTVYLQMNSLKPEDTAVYYCAARRLYYHPTLYYWGQGTQVTVSS”, the “polyreactivity (PSR sort gate)” value is reported as “high polyreactivity”.
